The record followed here is patent publication US20210238308A1.

Experiment in all cases: SPR, Protein L capture
Background: SPR reads the build-up and loss of mass on a sensor chip optically.

Assay [1] concerns the target PRYSPRY domain of human TRIM21 with N-terminal 6xHis tag (human).
The target of another assay is human FcRn (human) (UniProt P55899).
Assay [2] deals with PRYSPRY domain of mouse TRIM21 with N-terminal 6xHis tag (mouse).
PRYSPRY domain of mouse TRIM21 with N-terminal 6xHis tag (mouse), sequence (chain, as listed by the source limits assumed): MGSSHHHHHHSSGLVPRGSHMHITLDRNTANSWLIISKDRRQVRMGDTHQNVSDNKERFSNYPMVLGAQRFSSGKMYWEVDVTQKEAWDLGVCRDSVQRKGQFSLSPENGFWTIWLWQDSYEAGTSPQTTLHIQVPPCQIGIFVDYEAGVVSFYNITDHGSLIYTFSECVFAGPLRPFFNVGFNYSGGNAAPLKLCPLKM

PRYSPRY domain of human TRIM21 with N-terminal 6xHis tag (human), sequence (chain, as listed by the source limits assumed): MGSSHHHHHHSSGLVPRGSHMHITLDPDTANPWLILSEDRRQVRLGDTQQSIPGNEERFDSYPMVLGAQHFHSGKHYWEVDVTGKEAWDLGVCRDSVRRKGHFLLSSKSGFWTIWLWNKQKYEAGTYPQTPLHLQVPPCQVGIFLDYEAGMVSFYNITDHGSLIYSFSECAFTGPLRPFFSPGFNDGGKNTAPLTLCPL
UniProt P55899, sequence (P55899 24-290 limits assumed, form in doubt, chain 1 of 2): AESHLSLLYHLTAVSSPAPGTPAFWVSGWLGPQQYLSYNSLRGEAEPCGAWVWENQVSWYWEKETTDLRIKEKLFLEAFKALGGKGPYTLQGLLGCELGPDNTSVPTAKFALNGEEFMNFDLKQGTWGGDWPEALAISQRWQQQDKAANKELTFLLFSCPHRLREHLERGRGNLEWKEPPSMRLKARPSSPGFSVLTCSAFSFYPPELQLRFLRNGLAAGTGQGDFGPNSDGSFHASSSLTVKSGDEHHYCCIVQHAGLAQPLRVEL
UniProt P55899, sequence (chain, as listed by the source limits assumed, form in doubt, chain 2 of 2): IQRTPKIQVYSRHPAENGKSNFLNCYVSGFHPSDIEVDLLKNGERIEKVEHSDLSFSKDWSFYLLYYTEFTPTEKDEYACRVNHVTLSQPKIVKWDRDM

Turning to MRAH-G1d/MRAL-KT0 E345K (antibody), in assay [1], the hTRIM21 binding level ratio (variant/control antibody) was found to be 0.096. In the case of MRAH-G1d/MRAL-KT0 L309Q (antibody), the hFcRn binding level ratio (variant/control antibody) with human FcRn (human) was determined as 0.09.

Regarding MRAH-G1d/MRAL-KT0 L432A (antibody), the hFcRn binding level ratio (variant/control antibody) in the assay with human FcRn (human) was found to be 0.08. Consider MRAH-G1d/MRAL-KT0 L432R (antibody), for which, in assay [1], the hTRIM21 binding level ratio (variant/control antibody) is 0.099. For MRAH-G1d/MRAL-KT0 N434H (antibody), the mTRIM21 binding level ratio (variant/control antibody) in assay [2] stood at 0.097.
